Source: patent publication US20200190592A1, “PME-1 AS A BIOMARKER TO PREDICT AND DIAGNOSE AN INCREASED RISK OF ENDOMETRIAL CANCER AND GENE SILENCING OF PME-1 TO INHIBIT EPITHELIAL TO MESENCHYMAL TRANSITION” (Medical Diagnostic Laboratories, L.L.C., priority 2018, published 2020)

T1: FLAG-tagged PME-1 (over-expression of wild-type PME-1) (human, UniProt Q9Y570 1-386)
T1 construct: Expressed in ECC-1 cells and pulled down from lysate with FLAG resin; also called FLAG-PME-1; protein methylesterase 1; not shown: FLAG tag; an N-terminal FLAG vector p3XFLAG-CMV-10 is named in the methods for RL95-2 cells
T1 sequence (looked up): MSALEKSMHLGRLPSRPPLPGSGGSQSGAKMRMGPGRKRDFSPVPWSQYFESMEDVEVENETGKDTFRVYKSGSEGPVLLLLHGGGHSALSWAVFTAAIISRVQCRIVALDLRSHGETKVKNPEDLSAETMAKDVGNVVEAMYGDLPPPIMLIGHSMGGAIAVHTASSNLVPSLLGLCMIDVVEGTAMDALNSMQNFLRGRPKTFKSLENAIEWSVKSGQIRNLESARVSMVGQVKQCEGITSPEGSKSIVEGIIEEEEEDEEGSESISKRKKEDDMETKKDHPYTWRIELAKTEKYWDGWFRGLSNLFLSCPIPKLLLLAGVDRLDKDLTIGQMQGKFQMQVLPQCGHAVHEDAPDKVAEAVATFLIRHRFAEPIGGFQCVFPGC

T2: FLAG-tagged PME-1 S156A (catalytically inactive mutant) (human, UniProt Q9Y570 1-386)
T2 construct: Expressed in ECC-1 cells and pulled down from lysate with FLAG resin; also called FLAG-PME-1 S156A; FLAG PME-1 S156A; not shown: FLAG tag; an N-terminal FLAG vector p3XFLAG-CMV-10 is named in the methods for RL95-2 cells
T2 sequence (looked up): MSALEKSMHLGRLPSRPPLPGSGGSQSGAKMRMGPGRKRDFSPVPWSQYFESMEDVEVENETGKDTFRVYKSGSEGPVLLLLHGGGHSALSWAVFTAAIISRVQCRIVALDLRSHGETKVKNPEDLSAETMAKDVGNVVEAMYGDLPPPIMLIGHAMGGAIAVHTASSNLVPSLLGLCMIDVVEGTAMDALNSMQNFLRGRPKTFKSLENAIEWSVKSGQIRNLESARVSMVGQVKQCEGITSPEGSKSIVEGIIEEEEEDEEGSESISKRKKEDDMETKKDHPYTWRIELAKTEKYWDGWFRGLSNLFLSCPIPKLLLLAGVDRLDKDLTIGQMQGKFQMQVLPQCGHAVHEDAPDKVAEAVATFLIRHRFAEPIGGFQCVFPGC


Experiments:
[1] = system: RL95-2 cells; test: TUNEL assay; assay type: cell-based, human; settings: 100 nM siRNA, vs control siRNA; DNase positive control
Description: To test for the involvement of apoptosis, we used siRNA against PME-1 or control siRNA and conducted an immunofluorescence assay called a TUNEL assay. In this assay, all cells were stained blue with the nuclear stain, DAPI, and cells that were undergoing apoptosis would stain green with the addition of fluorescein, which bound to fragmented DNA. Fragmented DNA is a hallmark of apoptotic cells. […] A positive control was included in the assay to determine that the assay conditions were optimal. In the positive control, RL95-2 cells were treated with DNase.
RL95-2 cells were plated in a chamber-slide and allowed to grow over night at 37° C. Cells were transfected the next day with 100 nM of siRNA (Thermo Scientific) using Dharmafect 1 transfection reagent (siRNA sequences are summarized in Table S2). Transfections were repeated on day four and the cultures were terminated the day after. The assay was performed according to the manufacturer's instructions (Roche Applied Science, counterstained with DAPI and photographed using Leica DM16000 B microscope. Cells incubated with 1U/μl of DNase I (Life Technologies) served as a positive control. The experiment was repeated three times.

[2] = target: T1, FLAG-tagged PME-1 (over-expression of …); test: FLAG co-immunoprecipitation from ECC-1 lysate, western blot with anti-Ppp6c
[3] = target: T2, FLAG-tagged PME-1 S156A (catalytically …); test: as above

| binding result [2] | binding result [3] | Molecule | detection of apoptotic cells [1] |
| --- | --- | --- | --- |
|  |  | PPME1 siRNA no. 1: siRNA, SEQ ID NO: 4: TGG CTG GTG TTG ATA GAT T, bp 959-977 (guide TGGCTGGTGTTGATAGATT; listed as DNA, chemistry not given here; listed as Homo sapiens) | did not lead to detection of apoptotic cells |
| no binding | no binding | Endogenous Ppp6c, the catalytic subunit of PP6 (enzyme, human, UniProt O00743 1-305, looked up, Endogenous protein of ECC-1 cell lysate, probed by western blot with anti-Ppp6c; also called protein phosphatase 6 catalytic subunit) MAPLDLDKYVEIARLCKYLPENDLKRLCDYVCDLLLEESNVQPVSTPVTVCGDIHGQFYDLCELFRTGGQVPDTNYIFMGDFVDRGYYSLETFTYLLALKAKWPDRITLLRGNHESRQITQVYGFYDECQTKYGNANAWRYCTKVFDMLTVAALIDEQILCVHGGLSPDIKTLDQIRTIERNQEIPHKGAFCDLVWSDPEDVDTWAISPRGAGWLFGAKVTNEFVHINNLKLICRAHQLVHEGYKFMFDEKLVTVWSAPNYCYRCGNIASIMVFKDVNTREPKLFRAVPDSERVIPPRTTTPYFL |  |
